The results in this text go back to PMC4490564, “Molecular snapshots of the Pex1/6 AAA+ complex in action” (Nature Communications, 2015).

Test in all cases: negative stain EM (single-particle analysis, 3D reconstruction); purified complexes at 40-50 ug/ml, incubated with ATPγS (2.5 mM), ATP (5 mM), ADP (5 mM) or ADP-AlFx, adsorbed on carbon grids, stained with 2% uranyl acetate; threefold symmetry imposed
What all share (settings): both partners purified

Assay [1] deals with T1, Pex1GST (Pex1 with the C-terminal GST kept) (yeast, UniProt P24004 1-1043).
T1 construct: Pex1, yeast; PEX1 cloned into pRSFDuet-cGST (GST with a thrombin cleavage site); also called HisPex1GST; source: E. coli Tuner (DE3), purified; not shown: GST, C-terminal, kept
T1 sequence (looked up): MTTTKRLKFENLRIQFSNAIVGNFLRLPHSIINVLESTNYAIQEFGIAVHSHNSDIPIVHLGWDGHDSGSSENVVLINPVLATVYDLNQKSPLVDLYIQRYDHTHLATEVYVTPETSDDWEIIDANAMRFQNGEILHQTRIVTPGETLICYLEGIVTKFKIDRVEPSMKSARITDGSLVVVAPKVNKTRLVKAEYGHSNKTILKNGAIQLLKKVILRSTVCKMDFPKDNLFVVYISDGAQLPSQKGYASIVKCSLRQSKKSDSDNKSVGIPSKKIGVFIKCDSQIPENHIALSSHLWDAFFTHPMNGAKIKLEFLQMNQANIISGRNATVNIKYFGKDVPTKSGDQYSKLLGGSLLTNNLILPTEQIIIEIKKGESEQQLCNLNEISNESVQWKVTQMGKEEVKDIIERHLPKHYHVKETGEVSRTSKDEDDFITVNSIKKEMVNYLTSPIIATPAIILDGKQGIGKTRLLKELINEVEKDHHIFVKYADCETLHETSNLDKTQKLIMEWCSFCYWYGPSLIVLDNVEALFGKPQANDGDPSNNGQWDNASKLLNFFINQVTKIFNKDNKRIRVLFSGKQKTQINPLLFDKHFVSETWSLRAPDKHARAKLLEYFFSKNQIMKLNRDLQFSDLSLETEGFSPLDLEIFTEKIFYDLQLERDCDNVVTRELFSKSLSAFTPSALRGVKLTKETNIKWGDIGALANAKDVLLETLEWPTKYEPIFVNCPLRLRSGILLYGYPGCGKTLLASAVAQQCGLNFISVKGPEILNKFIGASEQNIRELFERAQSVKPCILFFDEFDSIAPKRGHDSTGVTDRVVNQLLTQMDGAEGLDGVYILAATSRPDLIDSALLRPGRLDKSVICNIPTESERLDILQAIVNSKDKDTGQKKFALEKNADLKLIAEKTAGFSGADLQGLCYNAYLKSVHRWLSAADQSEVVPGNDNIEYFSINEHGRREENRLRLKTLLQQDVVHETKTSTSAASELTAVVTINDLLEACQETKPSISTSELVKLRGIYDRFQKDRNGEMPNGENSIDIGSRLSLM

Assay [2] has as its target T2, Pex1 (wild type, from HisPex1GST after thrombin cleavage) (yeast, UniProt P24004 1-1043).
T2 construct: Pex1, yeast, type II AAA+ ATPase; PEX1 amplified from genomic DNA; 1,043 amino acids (from the range printed for Δ188PEX1); also called Pex1 of Pex1/6; source: E. coli Tuner (DE3), purified together with HisPex6 (Ni-NTA agarose, glutathione agarose, eluted by thrombin cleavage); not shown: GST, C-terminal, cleaved
T2 sequence (looked up): T1 sequence (looked up)

In assay [3] the target is T3, Pex6 (wild type, overexpressed in yeast) (yeast, UniProt P33760 1-1030).
T3 construct: Pex6, yeast; full-length PEX6 amplified from genomic DNA, in pRS425GAL or pYES2; also called Pex6 of Δ188Pex1/Pex6 and of Pex1WB/6; source: S. cerevisiae, overexpressed (2% galactose), purified (IgG Sepharose, TEV cleavage, glycerol gradient); not shown: protein A (ProA), C-terminal, cleaved
T3 sequence (looked up): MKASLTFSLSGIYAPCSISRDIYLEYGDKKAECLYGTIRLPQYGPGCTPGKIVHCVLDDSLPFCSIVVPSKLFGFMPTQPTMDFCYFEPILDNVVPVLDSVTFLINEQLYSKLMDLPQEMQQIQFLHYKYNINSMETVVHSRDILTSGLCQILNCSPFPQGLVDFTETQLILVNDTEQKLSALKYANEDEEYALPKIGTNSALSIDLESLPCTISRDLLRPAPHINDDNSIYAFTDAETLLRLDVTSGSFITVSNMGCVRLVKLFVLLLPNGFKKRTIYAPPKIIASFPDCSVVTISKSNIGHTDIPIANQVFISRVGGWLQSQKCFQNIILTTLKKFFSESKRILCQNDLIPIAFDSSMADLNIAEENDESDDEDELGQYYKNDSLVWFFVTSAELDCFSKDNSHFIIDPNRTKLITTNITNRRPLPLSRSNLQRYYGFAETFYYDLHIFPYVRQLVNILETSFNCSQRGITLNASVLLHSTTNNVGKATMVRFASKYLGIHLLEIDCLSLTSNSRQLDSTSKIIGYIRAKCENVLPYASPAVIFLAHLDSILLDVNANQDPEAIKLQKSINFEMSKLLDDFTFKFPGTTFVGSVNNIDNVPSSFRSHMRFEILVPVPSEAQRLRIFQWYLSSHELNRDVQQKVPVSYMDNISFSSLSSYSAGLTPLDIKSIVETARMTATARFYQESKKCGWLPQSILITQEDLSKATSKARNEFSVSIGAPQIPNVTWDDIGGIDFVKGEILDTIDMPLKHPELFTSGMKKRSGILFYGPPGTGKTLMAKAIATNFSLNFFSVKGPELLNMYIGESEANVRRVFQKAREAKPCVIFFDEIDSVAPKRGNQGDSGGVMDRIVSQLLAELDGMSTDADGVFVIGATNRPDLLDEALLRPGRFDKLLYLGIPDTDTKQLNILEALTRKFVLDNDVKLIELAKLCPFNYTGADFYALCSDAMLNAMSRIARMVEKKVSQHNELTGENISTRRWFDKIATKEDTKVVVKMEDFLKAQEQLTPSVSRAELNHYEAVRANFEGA

B1: Pex6 (wild type, HisPex6) (natural protein, yeast, UniProt P33760 1-1030, looked up)
chain: T3 sequence (looked up)
notes: Pex6, yeast, type II AAA+ ATPase; PEX6 amplified from genomic DNA; also called Pex6 of Pex1/6
Take B1: the binding result in assay [1] and in assay [2] was “binds” each time.

B2: Δ188Pex1 (N-terminal truncation mutant of Pex1) (domain or fragment, yeast, UniProt P24004 189-1043, looked up)
chain: RLVKAEYGHSNKTILKNGAIQLLKKVILRSTVCKMDFPKDNLFVVYISDGAQLPSQKGYASIVKCSLRQSKKSDSDNKSVGIPSKKIGVFIKCDSQIPENHIALSSHLWDAFFTHPMNGAKIKLEFLQMNQANIISGRNATVNIKYFGKDVPTKSGDQYSKLLGGSLLTNNLILPTEQIIIEIKKGESEQQLCNLNEISNESVQWKVTQMGKEEVKDIIERHLPKHYHVKETGEVSRTSKDEDDFITVNSIKKEMVNYLTSPIIATPAIILDGKQGIGKTRLLKELINEVEKDHHIFVKYADCETLHETSNLDKTQKLIMEWCSFCYWYGPSLIVLDNVEALFGKPQANDGDPSNNGQWDNASKLLNFFINQVTKIFNKDNKRIRVLFSGKQKTQINPLLFDKHFVSETWSLRAPDKHARAKLLEYFFSKNQIMKLNRDLQFSDLSLETEGFSPLDLEIFTEKIFYDLQLERDCDNVVTRELFSKSLSAFTPSALRGVKLTKETNIKWGDIGALANAKDVLLETLEWPTKYEPIFVNCPLRLRSGILLYGYPGCGKTLLASAVAQQCGLNFISVKGPEILNKFIGASEQNIRELFERAQSVKPCILFFDEFDSIAPKRGHDSTGVTDRVVNQLLTQMDGAEGLDGVYILAATSRPDLIDSALLRPGRLDKSVICNIPTESERLDILQAIVNSKDKDTGQKKFALEKNADLKLIAEKTAGFSGADLQGLCYNAYLKSVHRWLSAADQSEVVPGNDNIEYFSINEHGRREENRLRLKTLLQQDVVHETKTSTSAASELTAVVTINDLLEACQETKPSISTSELVKLRGIYDRFQKDRNGEMPNGENSIDIGSRLSLM
notes: Pex1, yeast, gene segment corresponding to amino acids 189-1,043; source: S. cerevisiae, overexpressed (2% galactose), purified (IgG Sepharose, TEV cleavage, glycerol gradient); not shown: protein A (ProA), C-terminal, cleaved
For the molecule B2, the binding result in assay [3] is on record as “binds”.
